Assays:
Test in all cases: EMSA
Details in all cases: 5x buffer (3 uL in 14 uL): 20% glycerol, 5 mM MgCl2, 2.5 mM EDTA, 2.5 mM DTT, 250 mM NaCl, 50 mM Tris-HCl pH 7.5, 0.25 mg/ml poly(dI-dC); 0.5 ug protein; 10 min
[1] = target: GST-AtWRKY50-C (Arabidopsis thaliana) (UniProt Q8VWQ5)
[2] = target: GST-AtWRKY50-C;TGA2-His (Arabidopsis thaliana;Arabidopsis thaliana) (UniProt Q8VWQ5+P43273)
[3] = target: T1, TGA2-His (Arabidopsis thaliana) (UniProt P43273)
T1 sequence: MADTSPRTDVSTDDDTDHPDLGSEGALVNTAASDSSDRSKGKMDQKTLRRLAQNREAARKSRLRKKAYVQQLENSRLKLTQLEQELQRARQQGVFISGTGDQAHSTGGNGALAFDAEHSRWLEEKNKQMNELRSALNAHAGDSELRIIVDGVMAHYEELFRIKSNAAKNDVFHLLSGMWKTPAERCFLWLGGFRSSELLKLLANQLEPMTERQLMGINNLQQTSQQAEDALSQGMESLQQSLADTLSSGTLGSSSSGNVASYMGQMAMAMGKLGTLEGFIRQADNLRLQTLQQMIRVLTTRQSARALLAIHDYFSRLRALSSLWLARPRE

Sequence of GST-AtWRKY50-C (Arabidopsis thaliana) (Q8VWQ5 86-173): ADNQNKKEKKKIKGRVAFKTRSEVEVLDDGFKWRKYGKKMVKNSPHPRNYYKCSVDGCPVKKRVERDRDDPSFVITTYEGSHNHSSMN
Sequence of GST-AtWRKY50-C;TGA2-His (Arabidopsis thaliana;Arabidopsis thaliana) (Q8VWQ5 86-173, one chain of several): as the sequence (Q8VWQ5 86-173) above

| Sequence | binding [1] | binding [2] | binding [3] |
| --- | --- | --- | --- |
| TTTCTCTACGTCACTATTTTACTTACGTCATAGATGTGGCGGCATATATTCTTCAGGACTTTTCAGATCTAGGC (double strand) [BCD] | binds | binds | binds |
| CATCTATTGCGTAAGTAAAATAGTGACGTAGAGAAACAGTCAATAGATCACCGGATCCGAT (double strand) [ABCm2] |  |  | binds more weakly |
| ATCGGATCCGGTGATCTATTGACTGTTTCTCTACGTCACTATTTTACTTACGTCATAGATGTGGCGGCATATA (double strand) [ABC] | binds |  | binds |
| CTCTACGCAACTATTTTACTTACGTCATAGATGTGGCGGCATATATTCTTCAGGACTTTTCAGATCTAGGC (double strand) [BCDm1] |  | binds | binds |
